Experimental data taken from publication PMC8451464.

Molecular target: papain (UniProt P00784)
Chain of UniProt P00784 (P00784 134-345): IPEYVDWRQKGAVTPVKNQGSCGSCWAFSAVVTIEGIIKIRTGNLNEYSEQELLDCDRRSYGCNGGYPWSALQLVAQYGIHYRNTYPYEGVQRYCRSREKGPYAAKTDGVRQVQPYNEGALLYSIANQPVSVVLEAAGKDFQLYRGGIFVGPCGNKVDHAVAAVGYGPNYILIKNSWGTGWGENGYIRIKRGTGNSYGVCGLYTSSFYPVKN

Substance: His-SSPbP53 (natural protein)
- degradation of fluorescein-labeled casein by papain (100 μg/mL) with His-SSPbP53 at 100 and 500 nM, 1 h at room temperature (% reduction of activity): > 50
